Results from article PMC11389407.

Legend:
[1] = molecular target: F_((ecto))-K394R (F_((ecto))-WT with substitution of Lys394 with Arg394) fused with the T4 fibritin trimerization domain (respiratory syncytial virus (strain of the construct not stated) | T4) (UniProt P03420); assay: MST; RED-NHS-labelled F_((ecto)) protein at 50 nM pretreated with DMSO, IGF1R titrated from 30.6 pM to 2 µM, PBS, Monolith NT.115
[2] = molecular target: F_((ecto))-WT (1–513 aa) fused with the T4 fibritin trimerization domain (respiratory syncytial virus (strain of the construct not stated) | T4) (UniProt P03420); assay: as above

Substance: extracellular domain of the human IGF1R protein (Met 1−Asn 932) (from UniProt P08069 31-932) (domain or fragment)
- Kd [1]: 12 nM
- Kd [2]: 11 nM
